This is an account of results in PMC12468009, “Development of a QCM-D-Based Aptasensor for the Real-Time Detection of β-Lactoglobulin”.

For this data set, the target named is T1, beta-lactoglobulin (β-LG) (bovine? (cow's milk), UniProt P02754 17-178).
T1 sequence: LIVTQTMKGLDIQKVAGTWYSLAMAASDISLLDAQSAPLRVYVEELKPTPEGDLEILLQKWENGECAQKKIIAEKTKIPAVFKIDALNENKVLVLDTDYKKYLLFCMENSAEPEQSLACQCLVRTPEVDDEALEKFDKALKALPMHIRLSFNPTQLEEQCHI
Put plainly: dot blot; 100 µg β-LG on nitrocellulose, 400 pmol aptamer in PBS, 37 °C; Dot blot: PBS, 37 °C, 1 h, membrane blocked with 5% BSA/0.01% Tween 20; QCM-D: β-LG in PBS pH 3.5, 37 °C, aptamer 0.5 µM in TRIS with 0.1% BSA for immobilization; PBS (pH 7.4 stock) contains CaCl2 and MgCl2. The note with it: protein: native; tags: none; chain copies: 2; label: biotin; predicted secondary structure only.

B1: Apt 356 (ssDNA)
DNA: GCCTGTTGTGAGCCTCCTAACCTGGTGTGCAAGGTGGACTCTCTTTATCTTGTTGTCAGTCTCATCACCGCATGCTTATTCTTGTCTCCC
modifications: 5'-biotin
As for B1, the binding result is recorded as “binds”.
